Drawing on article PMC10529462 (Brain research, 2023), this text covers Kd for five molecules.

A word on the Kd: it is the constant that tells how readily two partners part at equilibrium. Read a high Kd as weaker binding.

Substitutions are numbered along the chain they refer to. Names and notes keep the numbering of the source. No end group written: not given here.

Holding throughout (assay): fluorescence polarisation
On the technique in general: Fluorescence polarisation rises when a labelled molecule tumbles more slowly, as on binding a larger partner.

Assay [1] addresses T1, Mint1^WT C-terminal construct, amino acids 453-839 (rat, UniProt O35430 453-839).
T1 sequence (looked up): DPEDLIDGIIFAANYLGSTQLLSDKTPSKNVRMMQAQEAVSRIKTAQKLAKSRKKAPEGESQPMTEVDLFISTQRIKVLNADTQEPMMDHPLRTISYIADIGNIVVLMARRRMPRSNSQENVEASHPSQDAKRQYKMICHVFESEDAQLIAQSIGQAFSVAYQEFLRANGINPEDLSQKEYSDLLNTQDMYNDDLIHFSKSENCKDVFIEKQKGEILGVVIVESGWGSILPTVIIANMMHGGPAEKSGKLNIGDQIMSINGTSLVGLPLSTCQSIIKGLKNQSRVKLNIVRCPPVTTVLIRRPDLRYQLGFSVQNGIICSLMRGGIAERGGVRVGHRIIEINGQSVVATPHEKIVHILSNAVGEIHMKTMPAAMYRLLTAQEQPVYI

Assay [2] addresses T2, Mint1^Y549A/F610A C-terminal construct, amino acids 453-839 (rat, UniProt O35430 453-839, Y549A | F610A).
T2 sequence (looked up): T1 sequence (looked up) with Y97A, F158A

The target of assay [3] is T3, Mint1^Y633A C-terminal construct, amino acids 453-839 (rat, UniProt O35430 453-839, Y633A).
T3 sequence (looked up): T1 sequence (looked up) with Y181A

For the next assay, the target named is TAMRA-PS1-10mer.

B1: TAMRA-APP17-mer (peptide)
peptide: {TAMRA}-NNGQNGYENPTYKFFEQMQN
With B1, the dissociation constant (Kd) in assay [1] worked out at 282 ± 8.3 µM; in assay [2] it was 382 ± 12.5 µM; in assay [3], 14.5 ± 0.74 µM.

B2: TAMRA-VGCC2.2-20mer (peptide)
peptide: {TAMRA}-NNGLSSGGRARHSYHHPDQDHWC
B2: the Kd in assay [1] was determined as 619 ± 57.9 µM; in assay [2], 1460 ± 25.2 µM.

B3: Mint1^Y633A C-terminal construct, amino acids 453-839 (domain or fragment)
chain: T1 sequence (looked up) with Y181A
Consider B3, for which, in the assay with TAMRA-PS1-10mer, the equilibrium dissociation constant (Kd) is 139 µM.

B4: Mint1^WT C-terminal construct, amino acids 453-839 (domain or fragment)
chain: T1 sequence (looked up)
In the assay with TAMRA-PS1-10mer, B4 displayed a Kd of 358 µM.

B5: Mint1^Y549A/F610A C-terminal construct, amino acids 453-839 (domain or fragment)
chain: T1 sequence (looked up) with Y97A, F158A
In the assay with TAMRA-PS1-10mer, B5 showed a Kd of 301 µM.
